Results published in patent US20220332804A1 (CSL INNOVATION, published 2022).

What was measured:
Test in all cases: SPR; KD relative to WT C2;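 further: biacore SPR at 37 °C, anti-C2 mAbs captured on an anti-human IgG chip, alanine or serine C2 surface mutants tested, KD from 1:1 fit compared with wild-type C2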
human C2 E324A = biological target: T1, human C2 E324A (human, UniProt P06681 21-752)
T1 sequence: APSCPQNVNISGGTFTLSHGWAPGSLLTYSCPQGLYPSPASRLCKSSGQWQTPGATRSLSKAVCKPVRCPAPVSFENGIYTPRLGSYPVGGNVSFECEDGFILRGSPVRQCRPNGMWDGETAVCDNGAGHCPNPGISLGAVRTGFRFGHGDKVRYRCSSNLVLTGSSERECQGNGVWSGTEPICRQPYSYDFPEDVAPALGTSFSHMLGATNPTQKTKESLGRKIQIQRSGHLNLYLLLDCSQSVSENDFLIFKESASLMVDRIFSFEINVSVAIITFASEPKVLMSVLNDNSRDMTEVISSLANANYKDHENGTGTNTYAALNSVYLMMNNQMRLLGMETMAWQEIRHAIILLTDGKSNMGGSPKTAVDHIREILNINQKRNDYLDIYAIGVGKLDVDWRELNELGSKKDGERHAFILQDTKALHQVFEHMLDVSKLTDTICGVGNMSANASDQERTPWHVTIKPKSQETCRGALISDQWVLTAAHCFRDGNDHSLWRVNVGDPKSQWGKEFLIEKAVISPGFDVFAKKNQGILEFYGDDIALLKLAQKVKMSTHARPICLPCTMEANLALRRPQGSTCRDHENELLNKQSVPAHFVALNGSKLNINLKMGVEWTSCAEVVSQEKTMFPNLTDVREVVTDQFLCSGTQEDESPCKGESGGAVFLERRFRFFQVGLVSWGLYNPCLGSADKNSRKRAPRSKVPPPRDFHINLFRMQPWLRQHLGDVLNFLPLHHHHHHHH
Method: (§1) Surface plasmon resonance (SPR, Biacore) was used for all binding affinity analyses. In brief, goat anti-human IgG was directly immobilised onto the carboxymethyl dextran surface of CM5 sensorchips to approximately 12,000 RU using standard NHS/EDC chemistry at pH 5. The immobilised antibody surface was pre-conditioned with ten injections of polyclonal human IgG (Privigen 60 s) prepared at 1 μg/mL. Ligands (anti-C2 mAbs) were captured at the beginning of each cycle as described below. An adjacent spot or flow cell in which only Polyclonal IgG was capture was used as a reference surface. The goat anti-human IgG Fc antibody surface was regenerate in 100 mM H3PO4, injected for 45 seconds at the end of each cycle. Experiments were performed at 37° C. and the flow rate of each experiment was kept constant at 30 μL/min.
(§2) Sensogram data was double-referenced against a reference anti-IgG surface (i.e. minus anti-C2 mAb) and blank buffer injections obtained within each experiment. The binding data was fit to 1:1 (kinetic or steady-state) model using local Rmax and null refraction index (RI=0) when appropriate. Buffers and solutions were filtered (0.22 μm) prior to use.
(§3) The C2 mutants were designed to test the importance of surface exposed residues for antibody binding. Residues located at either the N-terminal VWA domain or C-terminal protease domain of C were replaced by either alanine or serine and tested for binding against anti-C2 antibodies.

human C2 K430A = biological target: T2, human C2 K430A (human, UniProt P06681 21-752)
T2 sequence: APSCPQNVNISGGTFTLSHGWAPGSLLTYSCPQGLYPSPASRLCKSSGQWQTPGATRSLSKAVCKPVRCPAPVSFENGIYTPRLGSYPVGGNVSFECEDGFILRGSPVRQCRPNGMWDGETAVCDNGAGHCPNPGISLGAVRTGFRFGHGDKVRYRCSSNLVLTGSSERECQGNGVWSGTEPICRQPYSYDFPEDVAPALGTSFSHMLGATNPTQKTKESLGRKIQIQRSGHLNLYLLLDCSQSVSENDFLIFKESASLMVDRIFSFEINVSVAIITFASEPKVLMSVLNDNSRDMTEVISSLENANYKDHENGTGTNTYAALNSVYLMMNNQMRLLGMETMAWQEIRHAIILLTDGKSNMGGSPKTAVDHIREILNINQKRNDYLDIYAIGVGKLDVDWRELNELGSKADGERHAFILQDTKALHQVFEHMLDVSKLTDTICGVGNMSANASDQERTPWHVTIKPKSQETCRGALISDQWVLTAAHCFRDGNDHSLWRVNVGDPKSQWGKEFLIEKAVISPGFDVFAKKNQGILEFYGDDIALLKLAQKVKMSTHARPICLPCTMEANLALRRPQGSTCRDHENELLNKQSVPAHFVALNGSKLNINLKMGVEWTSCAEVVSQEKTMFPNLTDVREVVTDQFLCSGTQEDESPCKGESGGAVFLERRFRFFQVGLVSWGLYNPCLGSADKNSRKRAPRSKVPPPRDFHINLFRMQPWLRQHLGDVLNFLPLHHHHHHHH
Method: as §1, §2, §3

human C2 T442A = biological target: T3, human C2 T442A (human, UniProt P06681 21-752)
T3 sequence: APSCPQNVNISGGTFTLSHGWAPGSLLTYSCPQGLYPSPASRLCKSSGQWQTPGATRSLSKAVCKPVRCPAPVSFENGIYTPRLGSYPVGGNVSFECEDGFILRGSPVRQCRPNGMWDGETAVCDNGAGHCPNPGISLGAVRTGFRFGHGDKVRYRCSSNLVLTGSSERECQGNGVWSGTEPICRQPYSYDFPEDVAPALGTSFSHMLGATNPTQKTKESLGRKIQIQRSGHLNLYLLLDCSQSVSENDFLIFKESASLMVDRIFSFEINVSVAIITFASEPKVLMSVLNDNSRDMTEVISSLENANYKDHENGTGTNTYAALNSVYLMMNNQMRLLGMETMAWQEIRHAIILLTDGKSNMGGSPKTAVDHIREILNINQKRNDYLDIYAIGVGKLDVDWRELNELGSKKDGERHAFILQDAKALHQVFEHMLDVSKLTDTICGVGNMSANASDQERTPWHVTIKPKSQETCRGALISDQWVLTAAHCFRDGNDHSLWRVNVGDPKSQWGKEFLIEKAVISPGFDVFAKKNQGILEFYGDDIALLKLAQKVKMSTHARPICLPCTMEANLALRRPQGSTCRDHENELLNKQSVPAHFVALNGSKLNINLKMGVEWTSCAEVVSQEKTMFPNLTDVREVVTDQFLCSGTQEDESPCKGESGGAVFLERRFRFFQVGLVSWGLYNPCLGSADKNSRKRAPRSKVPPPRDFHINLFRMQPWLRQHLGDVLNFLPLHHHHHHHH
Method: as §1, §2, §3

human C2 R519A = biological target: T4, human C2 R519A (human, UniProt P06681 21-752)
T4 sequence: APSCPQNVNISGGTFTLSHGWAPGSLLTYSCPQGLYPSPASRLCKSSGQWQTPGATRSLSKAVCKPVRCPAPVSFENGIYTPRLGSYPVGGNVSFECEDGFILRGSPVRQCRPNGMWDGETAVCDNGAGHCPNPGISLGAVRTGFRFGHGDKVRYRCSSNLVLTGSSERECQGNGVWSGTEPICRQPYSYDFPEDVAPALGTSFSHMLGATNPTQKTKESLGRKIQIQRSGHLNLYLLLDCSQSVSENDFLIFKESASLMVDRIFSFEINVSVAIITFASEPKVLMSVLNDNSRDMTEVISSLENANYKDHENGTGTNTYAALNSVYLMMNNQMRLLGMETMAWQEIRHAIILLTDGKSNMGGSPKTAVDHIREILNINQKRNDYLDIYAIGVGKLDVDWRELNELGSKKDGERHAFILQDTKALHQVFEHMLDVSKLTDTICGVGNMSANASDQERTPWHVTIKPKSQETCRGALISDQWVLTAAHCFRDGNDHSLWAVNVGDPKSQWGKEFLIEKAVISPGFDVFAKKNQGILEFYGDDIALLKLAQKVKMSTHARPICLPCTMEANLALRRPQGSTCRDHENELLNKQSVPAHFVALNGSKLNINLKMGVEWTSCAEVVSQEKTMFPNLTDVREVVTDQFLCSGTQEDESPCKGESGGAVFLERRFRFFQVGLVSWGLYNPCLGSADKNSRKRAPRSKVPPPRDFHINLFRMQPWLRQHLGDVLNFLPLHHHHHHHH
Method: as §1, §2, §3

B1: RF16-214 (antibody, V domains shown)
VH: EVQLLESGGGLVQPGGSLRLSCAASGFTFSWYQMMWVRQAPGKGLEWVSRIYPSGGGTAYADSVKGRFTISRDNSKNTLYLQMNSLRAEDTAVYYCARDAGYGDNWGQGTLVTVSS
VL: QSALTQPPSVSVSPGQTASITCSGDKLGEKYASWYQQKAGQSPVMVIYQDRKRPSGIPERFSGSNSGNTATLTISGTQAMDEADYYCQAWDTRAVVFGGGTKLTVLG
In the case of B1, the Fold diff (human C2 E324A) is reported as 1 fold, the Fold diff (human C2 K430A) is reported as 10 fold and the Fold diff (human C2 T442A) is reported as 2 fold. For the same binder, the Fold diff (human C2 R519A) was 1 fold.
